Series [1] deals with T1, CouR (Rhodococcus jostii, UniProt Q0S6D0).
T1 construct: gene RHA1_ro05125; full-length, homodimer; crystal model residues 4–146
T1 sequence (Q0S6D0 1-146): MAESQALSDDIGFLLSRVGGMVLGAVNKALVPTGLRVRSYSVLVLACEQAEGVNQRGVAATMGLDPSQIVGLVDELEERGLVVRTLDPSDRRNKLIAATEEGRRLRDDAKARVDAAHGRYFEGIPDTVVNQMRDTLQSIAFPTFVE
Kind of series: ([…] Å) and ITC; EMSA in support. It is filed as binding. (In general: A gel shift assay detects complexes by their altered migration in electrophoresis.)

Series [2] deals with T2, CouR (Rhodococcus jostii, UniProt Q0S6D0, R38A).
T2 construct: gene RHA1_ro05125; full-length
Kind of series: ITC. It is filed as binding.

Series [3] deals with T3, CouR (Rhodococcus jostii, UniProt Q0S6D0, R36A).
T3 construct: gene RHA1_ro05125; full-length
Kind of series: ITC. Format: binding.

Series [4] addresses T4, CouR (Rhodococcus jostii, UniProt Q0S6D0, R36A/R38A).
T4 construct: gene RHA1_ro05125; full-length
Kind of series: ITC. Format: binding.

The target of series [5] is T5, CouR (Rhodococcus jostii RHA1, UniProt Q0S6D0 1-146).
T5 sequence: T1 sequence (Q0S6D0 1-146)
Kind of series: EMSA; 25-200 nM CouR; EMSA: 20 mM HEPES pH 7.6, 10 mM (NH4)2SO4, 30 mM KCl, 1 mM DTT, 1 mM EDTA, 0.2% Tween 20, 100 ug/ml poly[d(I-C)], 1 nM probe, 25 C, 20 min. The conditions noted are these: protein: recombinant; tags: His-tag removed by Factor Xa; extra N-terminal His residue remains; chain copies: 2; label: 3' DIG-11-ddUTP (probe); blunt.

A further series has as its target T6, CouR R38A (Rhodococcus jostii RHA1, UniProt Q0S6D0 1-146, R38A).
T6 sequence: T1 sequence (Q0S6D0 1-146) with R38A
Kind of series: EMSA; 50 or 200 nM protein; EMSA: 20 mM HEPES pH 7.6, 10 mM (NH4)2SO4, 30 mM KCl, 1 mM DTT, 1 mM EDTA, 0.2% Tween 20, 100 ug/ml poly[d(I-C)], 1 nM probe, 25 C, 20 min. The conditions noted are these: protein: recombinant; tags: His-tag removed by Factor Xa; extra N-terminal His residue remains; chain copies: 2; label: 3' DIG-11-ddUTP (probe); blunt.

For the next series, the target named is T7, CouR R36A (Rhodococcus jostii RHA1, UniProt Q0S6D0 1-146, R36A).
T7 sequence: T1 sequence (Q0S6D0 1-146) with R36A
The description is as above. The conditions noted are these: protein: recombinant; tags: His-tag removed by Factor Xa; extra N-terminal His residue remains; chain copies: 2; label: 3' DIG-11-ddUTP (probe); blunt.

Another series deals with T8, CouR R36A/R38A (Rhodococcus jostii RHA1, UniProt Q0S6D0 1-146, R36A;R38A).
T8 sequence: T1 sequence (Q0S6D0 1-146) with R36A, R38A
The series is described as above. The conditions noted are these: protein: recombinant; tags: His-tag removed by Factor Xa; extra N-terminal His residue remains; chain copies: 2; label: 3' DIG-11-ddUTP (probe); blunt.

Series [6] addresses T5, CouR. Kind of series: competition; 1 uM unlabelled vs 1 nM DIG-couRp_couNp, 200 nM CouR; EMSA: 20 mM HEPES pH 7.6, 10 mM (NH4)2SO4, 30 mM KCl, 1 mM DTT, 1 mM EDTA, 0.2% Tween 20, 100 ug/ml poly[d(I-C)], 1 nM probe, 25 C, 20 min. Conditions: protein: recombinant; tags: His-tag removed by Factor Xa; extra N-terminal His residue remains; chain copies: 2; blunt.

Residue numbers refer to the chain shown, from its start.

One may read the Kd as the equilibrium constant for the complex coming apart. The low end stands for a tighter complex, the high end for a looser complex. Take `CC(C)(COP(=O)(O)OP(=O)(O)OC[C@H]1O[C@@H](n2cnc3c(N)ncnc32)[C@H](O)[C@@H]1OP(=O)(O)O)[C@@H](O)C(=O)NCCC(=O)NCCSC(=O)/C=C/c1ccc(O)cc1` [p-coumaroyl–CoA]: the Kd on CouR [1] was 11 µM; at CouR [2] it was 25 µM; at CouR [3], 28 µM; at CouR [4], 89 µM.

B1: couRp_couNp (dsDNA)
DNA 1: CATTGATGATTGAGAATGTCAATGATTAAGG
DNA 2: CCTTAATCATTGACATTCTCAATCATCAATG
Regarding B1, the binding result in the series with CouR [5] is reported as “binds”; in the series with CouR R38A, “no binding”; with CouR R36A, “no binding”; in the series with CouR R36A/R38A it was “no binding”.

B2: couHp (dsDNA)
DNA 1: TATCAATCATTGATAATGTCAATGATTGACT
DNA 2: AGTCAATCATTGACATTATCAATGATTGATA
With B2, in the series with CouR [6], the binding result is recorded as “binds”.

B3: couTp (dsDNA)
DNA 1: CATTAATCATTGAACTTGTCAATGGAAGAGA
DNA 2: TCTCTTCCATTGACAAGTTCAATGATTAATG
With B3, the binding result in the series with CouR [6] is “binds”.

B4: couRp_couNp_m (dsDNA)
DNA 1: CATTGATGTAACTGAATGAGTTAGATTAAGG
DNA 2: CCTTAATCTAACTCATTCAGTTACATCAATG
Consider B4, for which the binding result with CouR [5] was “no binding”.
